Each block holds one binder with its values, some of them ahead of it.
B1: GluK2em (rat GluK2 cryo-EM expression construct) (receptor, UniProt P42260 32-908, looked up)
chain: TTHVLRFGGIFEYVESGPMGAEELAFRFAVNTINRNRTLLPNTTLTYDTQKINLYDSFEASKKACDQLSLGVAAIFGPSHSSSANAVQSICNALGVPHIQTRWKHQVSDNKDSFYVSLYPDFSSLSRAILDLVQFFKWKTVTVVYDDSTGLIRLQELIKAPSRYNLRLKIRQLPADTKDAKPLLKEMKRGKEFHVIFDCSHEMAAGILKQALAMGMMTEYYHYIFTTLDLFALDVEPYRYSGVNMTGFRILNTENTQVSSIIEKWSMERLQAPPKPDSGLLDGFMTTDAALMYDAVHVVSVAVQQFPQMTVSSLQCNRHKPWRFGTRFMSLIKEAHWEGLTGRITFNKTNGLRTDFDLDVISLKEEGLEKIGTWDPASGLNMTESQKGKPANITDSLSNRSLIVTTILEEPYVLFKKSDKPLYGNDRFEGYCIDLLRELSTILGFTYEIRLVEDGKYGAQDDVNGQWNGMVRELIDHKADLAVAPLAITYVREKVIDFSKPFMTLGISILYRKPNGTNPGVFSFLNPLSPDIWMYVLLAYLGVSVVLFVIARFSPYEWYNPHPSNPDSDVVENNFTLLNSFWFGVGALMQQGSELMPKALSTRIVGGIWWFFTLIIISSYTANLAAFLTVERMESPIDSADDLAKQTKIEYGAVEDGATMTFFKKSKISTYDKMWAFMSSRRQSVLVKSNEEGIQRVLTSDYAFLMESTTIEFVTQRNCNLTQIGGLIDSKGYGVGTPMGSPYRDKITIAILQLQEEGKLHMMKEKWWRGNGCPEEESKEASALGVQNIGGIFIVLAAGLVLSVFVAVGEFLYKSKKNAQLEKRSFCSAMVEELRMSLKCQRRLKHKPQAPVIVKTEEVINMHTFNDRRLPGKETMA
modifications: N-linked glycans at N67, N378, N412, N546
notes: signal peptide in the construct; rat GluK2 (GRIK2_RAT), full-length gene, RNA-edited at position 567 (I to V), with C576V and C595S; Two copies stand in the GluK2/K5em tetramer (B/D positions); No thrombin cleavage step is told in the purification; also called B/D subunits; source: HEK293S GnTI- cells, BacMam, co-expressed with GluK5em, purified (Strep-Tactin, 1D4 resin, Superose 6); HEK293T, …

Assays:
[1] = biological target: the molecule itself; assay: cryo-EM structure; GluK2/K5em co-expressed and co-purified in DDM/CHS, 3.7 mg/mL, with 1 mM CNQX (antagonist-bound); full-length 5.3 Å, ATD layer 3.6 Å, LBD-TMD 4.2 Å
[2] = biological target: wild-type GluK2 (rat) (UniProt P42260)
[3] = biological target: B1; assay: cryo-EM structure; GluK2/K5em co-expressed and co-purified in DDM/CHS, 3.7 mg/mL, with 1 mM CNQX (antagonist-bound); full-length 5.3 Å, ATD layer 3.6 Å, LBD-TMD 4.2 Å; conditions: both partners purified

Binder: B1
binding result [1]: binds

deactivation current decay after a 1 ms pulse of 1 mM L-Glu, outside-out patches of HEK293T cells co-transfected with wild-type GluK2 and GluK5; weighted τ [2]: 23.6 ms | deactivation current decay after a 1 ms pulse of 1 mM L-Glu, outside-out patches of HEK293T cells co-transfected with wild-type GluK2 and GluK5; τ3 (slow component) [2]: 60 ms
B2: wild-type GluK5 (receptor)
chain: NPSCQVLSSLRMAAILDDQTVCGRGERLALALAREQINGIIEVPAKARVEVDIFELQRDSQYETTDTMCQILPKGVVSVLGPSSSPASASTVSHICGEKEIPHIKVGPEETPRLQYLRFASVSLYPSNEDVSLAVSRILKSFNYPSASLICAKAECLLRLEELVRGFLISKETLSVRMLDDSRDPTPLLKEIRDDKVSTIIIDANASISHLVLRKASELGMTSAFYKYILTTMDFPILHLDGIVEDSSNILGFSMFNTSHPFYPEFVRSLNMSWRENCEASTYPGPALSAALMFDAVHVVVSAVRELNRSQEIGVKPLACTSANIWPHGTSLMNYLRMVEYDGLTGRVEFNSKGQRTNYTLRILEKSRQGHREIGVWYSNRTLAMNATTLDINLSQTLANKTLVVTTILENPYVMRRPNFQALSGNERFEGFCVDMLRELAELLRFRYRLRLVEDGLYGAPEPNGSWTGMVGELINRKADLAVAAFTITAEREKVIDFSKPFMTLGISILYRVHMGRKPGYFSFLDPFSPAVWLFMLLAYLAVSCVLFLAARLSPYEWYNPHPCLRARPHILENQYTLGNSLWFPVGGFMQQGSEIMPRALSTRCVSGVWWAFTLIIISSYTANLAAFLTVQRMEVPVESADDLADQTNIEYGTIHAGSTMTFFQNSRYQTYQRMWNYMQSKQPSVFVKSTEEGIARVLNSRYAFLLESTMNEYHRRLNCNLTQIGGLLDTKGYGIGMPLGSPFRDEITLAILQLQENNRLEILKRKWWEGGRCPKEEDHRAKGLGMENIGGIFVVLICGLIIAVFVAVMEFIWSTRRSAESEEVSVCQEMLQELRHAVSCRKTSRSRRRRRPGGPSRALLSLRAVREMRLSNGKLYSAGAGGDAGAHGGPQRLLDDPGPPGGPRPQAPTPCTHVRVCQECRRIQALRASGAGAPPRGLGTPAEATSPPRPRPGPTGPRELTEHE

stoichiometry N [3]: 1 GluK5 per GluK2 (printed as 2:2)
B3: GluK5em (rat GluK5 cryo-EM expression construct) (receptor)
chain: NPSCQVLSSLRMAAILDDQTVCGRGERLALALAREQINGIIEVPAKARVEVDIFELQRDSQYETTDTMCQILPKGVVSVLGPSSSPASASTVSHICGEKEIPHIKVGPEETPRLQYLRFASVSLYPSNEDVSLAVSRILKSFNYPSASLICAKAECLLRLEELVRGFLISKETLSVRMLDDSRDPTPLLKEIRDDKVSTIIIDANASISHLVLRKASELGMTSAFYKYILTTMDFPILHLDGIVEDSSNILGFSMFNTSHPFYPEFVRSLNMSWRENCEASTYPGPALSAALMFDAVHVVVSAVRELNRSQEIGVKPLACTSANIWPHGTSLMNYLRMVEYDGLTGRVEFNSKGQRTNYTLRILEKSRQGHREIGVWYSNRTLAMNATTLDINLSQTLANKTLVVTTILENPYVMRRPNFQALSGNERFEGFCVDMLRELAELLRFRYRLRLVEDGLYGAPEPNGSWTGMVGELINRKADLAVAAFTITAEREKVIDFSKPFMTLGISILYRVHMGRKPGYFSFLDPFSPAVWLFMLLAYLAVSVVLFLAARLSPYEWYNPHPSLRARPHILENQYTLGNSLWFPVGGFMQQGSEIMPRALSTRIVSGVWWAFTLIIISSYTANLAAFLTVQRMEVPVESADDLADQTNIEYGTIHAGSTMTFFQNSRYQTYQRMWNYMQSKQPSVFVKSTEEGIARVLNSRYAFLLESTMNEYHRRLNCNLTQIGGLLDTKGYGIGMPLGSPFRDEITLAILQLQENNRLEILKRKWWEGGRCPKEEDHRAKGLGMENIGGIFVVLIAGLIIAVFVAVMEFIYKSRAEAKRMK
modifications: N-linked glycans at N219, N271, N322, N372, N394
notes: signal peptide in the construct; rat GluK5 (GRIK5_RAT), from the full-length gene, truncated at position 827 after the M4 helix, four cysteines mutated; GluA2 'tail' ('A2 tail') added at the subunit C-terminus in place of the GluK5 C-terminus; GluK5 with point mutations and its C-terminus replaced by the GluA2 tail; Two copies stand in the GluK2/K5em tetramer (A/C positions); No thrombin cleavage …

Source: publication PMC7997659, “Architecture and structural dynamics of the heteromeric GluK2/K5 kainate receptor” (eLife, 2021)
